The test system of data set [1] is non-fasted rats (Sprague-Dawley strain). As to the kind of experiment: In-vivo evaluation of dermally-applied insulin after diethyl maleate (DEM) pretreatment: plasma glucose. The settings on record: FIG. 3. Details: species or system rat. On the procedure: Two non-fasted locally-grown rats (Sprague-Dawley strain) were anesthetized (15 mg/ml pentobarbital sodium, 0.2-0.3 ml i.p.). The rats were placed on their back, the abdominal hair was trimmed off, and then the skin was washed gently with distilled water. The animals were maintained with 0.1 ml pentobarbital 15 mg/ml solution to keep them continuously asleep during the experiment. Diethyl maleate, a glutathion depleting agent, was injected intraperitoneally (0.5 ml, 20% v/v ethanolic solution) to one rat only.
Blood sampling and glucose measurement were performed as described in example 5.

The test system of data set [2] is rats (Sprague-Dawley strain). As to the kind of experiment: In-vivo evaluation of dermally-applied insulin with oxidant pretreatment: plasma glucose monitoring. Details: species or system rat.
The conditions of data set [3]: for applied insulin remained in the cylinder: after 3 hours. The source says:
Careful attention was paid that the liquid has covered the entire skin area in the cylinder and that no leaking has occurred.

For data set [4] the following is noted: iodine-pretreated skin exposed for 2 hours to insulin; FIG. 9B. On the procedure: The method was performed according to Wroblewski et al (see above) using a reverse phase column (Vydac C18, 250×4.6 mm, 5? m), and a diodearray detector.
The conditions of data set [5]: control rats not pretreated with iodine, dermal insulin.
The next data set relates to GSH. The conditions noted are these: iodine 0.5% to 10% applied; preliminary experiments, FIG. 10.

Entries after “also recorded” stand apart in the source; their conditions may differ. Structures can show the parent of a compound that is named as a salt. Where two headings read alike, the source gives them in different places.

Take `CCOC(=O)/C=C\C(=O)OCC` [DEM, Diethyl maleate]: the plasma glucose result in data set [1] (DEM 0.5 ml 20% v/v ethanolic solution i.p., then 50 IU Humulin R dermally) is “abrupt reduction”.

Consider “insulin: human insulin, applied as Humulin R solution for injection, 0.5 ml equivalent to 50 IU”, for which the plasma/blood glucose levels entry in data set [2] (dermal insulin 50 IU, control rats without oxidant pretreatment) was “no reduction; also recorded: not influenced; also recorded: almost the same levels with no change”. For the same compound, the plasma glucose result in data set [1] (rat without DEM, 50 IU Humulin R dermally) is reported as “decreased relatively slower”. For the same compound, the “applied insulin remained in the cylinder” value is “about 77%” in data set [3] (both control and iodine-treated groups); 76.0±6.6% in data set [3] (control group (first value)); 77.3±7.8% in data set [3] (iodine-treated group). Besides, the “insulin quantities in the open wells” value in data set [3] (initial in vivo studies, insulin-containing wells on rat abdominal skin, no oxidant) is “significantly decreased”. Besides, the “insulin form found in skin extract (HPLC)” value in data set [4] is recorded as “parent insulin was accumulated quantitatively”. Also, the plasma insulin levels result in data set [5] is “No elevation”.

As for `OO` [hydrogen peroxide], the plasma glucose levels entry in data set [2] (Example 6: 3 hours oxidant pretreatment (5% silver protein, 0.01% potassium permangnate, 9% hydrogen peroxide or povidone-iodine), then 50 IU Humulin R, FIG. 2) is “No glucose reduction”.

With `II` [iodine], the “iodine concentration at which minimum level of GSH is obtained” value with GSH is given as “about 2%”.

These data come from patent US6667052B2, “Transdermal delivery system” (priority 1997, dated 2003).
